B1: CPEB3 Ribozyme (parent)
chain: GGGGGCCACAGCAGAAGCGUUCACGUCGCGGCCCCUGUCAGAUUCUGGUGAAUCUGCGAAUUCUGCUGU

Variants of: B1
Experiment: self-cleavage, relative activity (ratio to wild type); higher = more cleavage; co-transcriptional

Row | Variant | self-cleavage
1 | U20G U64G | 0.117
2 | U20G U67A | 0.223
3 | U20G U67C | 0.237
4 | U20G U69A | 0.264
5 | U21A A42U | 0.941
6 | U21A A59U | 0.891
7 | U21A C22U | 0.325
8 | U21A C24U | 0.69
9 | U21A C27G | 0.222
10 | U21A C29A | 0.686
11 | U21A C32A | 0.808
12 | U21A C32U | 0.993
13 | U21A C34G | 0.606
14 | U21A C35G | 0.198
15 | U21A C39A | 0.911
16 | U21A C66U | 0.985
17 | U21A G28U | 0.241
18 | U21A G30A | 0.866
19 | U21A G31C | 0.221
20 | U21A G37A | 0.283
21 | U21A G37C | 0.217

Row | Variant | self-cleavage
22 | U21A G48C | 1.01
23 | U21A G50U | 0.971
24 | U21A G58C | 0.938
25 | U21A G58U | 0.996
26 | U21A G65A | 0.862
27 | U21A G65U | 0.795
28 | U21A G68A | 1.02
29 | U21A U43C | 0.909
30 | U21A U55A | 0.916
31 | U21A U55G | 0.811
32 | U21A U61C | 0.728
33 | U21A U62C | 0.844
34 | U21A U64G | 0.898
35 | U21A U67G | 1.02
36 | U21C A23G | 0.76
37 | U21C A42C | 0.853
38 | U21C A51G | 0.914
39 | U21C A52G | 0.887
40 | U21C A52U | 0.93
41 | U21C A59C | 0.351
42 | U21C A60C | 0.406

Row | Variant | self-cleavage
43 | U21C C22G | 0.0423
44 | U21C C22U | 0.268
45 | U21C C24A | 0.376
46 | U21C C27G | 0.209
47 | U21C C29A | 0.274
48 | U21C C33A | 0.516
49 | U21C C33G | 0.217
50 | U21C C35A | 0.229
51 | U21C C39G | 0.895
52 | U21C C45G | 0.864
53 | U21C C57G | 0.384
54 | U21C C66A | 0.611
55 | U21C G28A | 0.192
56 | U21C G31A | 0.569
57 | U21C G31C | 0.16
58 | U21C G37A | 0.261
59 | U21C G37U | 0.264
60 | U21C G48A | 0.933
61 | U21C G56C | 0.426
62 | U21C G68C | 0.899
63 | U21C G68U | 1

Row | Variant | self-cleavage
64 | U21C U26A | 0.216
65 | U21C U43C | 0.875
66 | U21C U44A | 0.911
67 | U21C U44C | 0.824
68 | U21C U44G | 0.859
69 | U21C U46C | 0.89
70 | U21C U53G | 0.724
71 | U21C U55A | 0.843
72 | U21C U55G | 0.723
73 | U21C U61A | 0.538
74 | U21C U62A | 0.661
75 | U21C U64A | 0.706
76 | U21C U67G | 0.978
77 | U21C U69A | 0.885
78 | U21C U69G | 0.933
79 | U21G A23G | 0.549
80 | U21G A40C | 0.222
81 | U21G A42G | 0.558
82 | U21G A52C | 0.459
83 | U21G A59G | 0.675
84 | U21G A59U | 0.219

Reference: the RNAGym collection of RNA variant scans (doi:10.7554/elife.80360)
